Source: the supplement of paper PMC12764529
± gives the half width of the 95% confidence interval.

Key:
[1] = folding stability dG unfold from chymotrypsin proteolysis; higher = more stable
How it was run: (§1)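 How resistant each design was to proteolysis was captured as K50, inferred by Bayesian fitting of sequencing counts. Unfolding free energy was then derived relative to a sequence-predicted unfolded-state K50 and a shared folded-state K50, per protease or combined. Digestion used trypsin and chymotrypsin at 11 threefold-diluted concentrations plus a no-protease condition, on mini-proteins under 80 residues without cysteine in a PA-tagged cDNA display construct. Designs were kept only when AlphaFold2 dimer inter-PAE was above 15.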

[2] = folding stability dG unfold (combined trypsin and chymotrypsin); higher = more stable
How it was run: as §1

**Q.** Which “folding stability dG unfold” value [1] does the source give for “SAGGSPWIEVEIPFPPGMPADELADFIAEELDENGHDVKVDDVEQDPEEGYMKFRVRDGKSVEIPWSAGGSA [r2_242_TrROS]” here?
**A.** -0.522 ± 0.28 kcal/mol

**Q.** What about the “folding stability dG unfold” value [2] of the same sequence?
**A.** -0.521 ± 0.23 kcal/mol

**Q.** Which results are given for “SAGGSAITLEDIRNMPIEEIAKEMQDHFPNGQKQPIEFEYPDGRKLRIKAEYPPNGEPKIDIEPVDSAGGSA [r15_857_TrROS]”?
**A.** folding stability dG unfold [1]: 0.139 ± 0.14 kcal/mol; folding stability dG unfold [2]: < -1 kcal/mol

**Q.** With “SAGGSAGGSPPESRPFTTDPGPSGEYTAKLLPPDGSSEEVVLPVSQPRTLNVPKDWSFEVLPPSAGGSAGGS [r12_517_JUSTAS]” as the sequence, how does the “folding stability dG unfold” value [1] read?
**A.** 0.157 ± 0.11 kcal/mol

**Q.** What about the “folding stability dG unfold” value [2] of the same sequence?
**A.** -0.338 ± 0.12 kcal/mol

**Q.** Which “folding stability dG unfold” value [1] does the source give for “SAGGSAMKAKVVDTSLKESKTKDDSIIVTVTVKYPDGSVTPIVYPVSSSGGISEEEVEKAIKELLESAGGSA [r15_233_JUSTAS]” here?
**A.** -0.138 ± 0.057 kcal/mol

**Q.** What about the “folding stability dG unfold” value [2] of the same sequence?
**A.** -0.661 ± 0.14 kcal/mol

**Q.** With “SAGGSAGGSAGGSKSIYISPDDPNNIRTPDDGEPFKGMPIEEAKKEGIEPRGPNAFRIPSAGGSAGGSAGGS [r4_306_TrROS]” as the sequence, how does the “folding stability dG unfold” value [1] read?
**A.** -0.152 ± 0.36 kcal/mol

**Q.** And the “folding stability dG unfold” value [2]?
**A.** -0.582 ± 0.54 kcal/mol

**Q.** For “SAGGSAMVVPVASEEEARAVAEEAAARGEPVVIAFPGGRALVVETAAAPTPEPVLRVEEREVPPLLSAGGSA [r15_761_JUSTAS]”, which “folding stability dG unfold” value [1] is on record?
**A.** 0.744 ± 0.0083 kcal/mol

**Q.** What about the “folding stability dG unfold” value [2] of the same sequence?
**A.** 0.216 ± 0.034 kcal/mol

**Q.** With “SAGGSAGGSAGMTLVKTYERFPETGTVVERLSAREPDGPTVPLEVTKVRPVAGEEPVPLLSAGGSAGGSAGG [r11_750_JUSTAS]” as the sequence, how does the “folding stability dG unfold” value [1] read?
**A.** -0.665 ± 0.23 kcal/mol

**Q.** And the “folding stability dG unfold” value [2]?
**A.** < -1 kcal/mol

**Q.** With “SAMVPLEEAAKRVAEELGLEYTEITKIVPGTGELIVEFPGKKLTVTQDPATGSTTVEETFYDPETGVKKSAG [r14_270_JUSTAS]” as the sequence, how does the “folding stability dG unfold” value [1] read?
**A.** -1.35 ± 0.28 kcal/mol

**Q.** What about the “folding stability dG unfold” value [2] of the same sequence?
**A.** < -1 kcal/mol

**Q.** Which “folding stability dG unfold” value [1] does the source give for “SAGKSKTITLEIYNKETNIIIKIEIEINGDEVTIKVYAFNKDGKLIAKAEIKFNKKTKKLEIKIEIKKLSAG [r5_747_TrROS_Hall]” here?
**A.** 5.07 ± 0.33 kcal/mol

**Q.** And the “folding stability dG unfold” value [2]?
**A.** > 6 kcal/mol

**Q.** For “SAGGSIPAEEIADKLRKEPGIPEDDVEVNVERRPGQVTIDVKMDDPDHPQHRRMKKRAQDALQKLLSAGGSA [r2_3_TrROS]”, which “folding stability dG unfold” value [1] is on record?
**A.** 0.186 ± 0.31 kcal/mol

**Q.** What about the “folding stability dG unfold” value [2] of the same sequence?
**A.** -0.133 ± 0.3 kcal/mol

**Q.** With “SAGGSAGGSAGGPMYTVHTETFTTLEPGAGKRIVTTRTTNPATGATATTTTVIPLEPEALSAGGSAGGSAGG [r17_153_JUSTAS]” as the sequence, how does the “folding stability dG unfold” value [1] read?
**A.** -0.555 ± 0.39 kcal/mol

**Q.** What about the “folding stability dG unfold” value [2] of the same sequence?
**A.** < -1 kcal/mol

**Q.** Which “folding stability dG unfold” value [1] does the source give for “SAGGSAGGSEEIYIKVTVEHPNGEKRTHEIERIRDKDGLPIKQIAKELAQEPNVRDVDVEIVKSAGGSAGGS [r12_199_TrROS]” here?
**A.** -0.316 ± 0.072 kcal/mol

**Q.** And the “folding stability dG unfold” value [2]?
**A.** -0.56 ± 0.15 kcal/mol

**Q.** For “SAGGSAGGSAGGSPVLKTEEKALPNGTVVTTEFLPGGRRREVITPPDGTVKVVEREIERSAGGSAGGSAGGS [r10_1184_JUSTAS]”, which “folding stability dG unfold” value [1] is on record?
**A.** 0.356 ± 0.019 kcal/mol

**Q.** What about the “folding stability dG unfold” value [2] of the same sequence?
**A.** -0.0994 ± 0.095 kcal/mol

**Q.** Which “folding stability dG unfold” value [1] does the source give for “SAGGSAGGSAGGKIEIDNIERFRPPNGNRYYKMTIRVEGNGKEREIWAPADDADNFKIESAGGSAGGSAGGS [r10_326_TrROS]” here?
**A.** -0.0266 ± 0.22 kcal/mol

**Q.** What about the “folding stability dG unfold” value [2] of the same sequence?
**A.** -0.474 ± 0.25 kcal/mol

**Q.** For “SAGGSAGGSARTVPPDLLVRVETPDEERIVPVSELDAFFARHPDVPWRDITVVDPATGAARSAGGSAGGSAG [r3_134_JUSTAS]”, which “folding stability dG unfold” value [1] is on record?
**A.** 0.539 ± 0.11 kcal/mol

**Q.** And the “folding stability dG unfold” value [2]?
**A.** -0.675 ± 0.37 kcal/mol

**Q.** What does the source list for “SAGGSAGGSMKEGTFNSEEEVEELKKKYPNVEVYEDPETNTIHVKIKEESEKEYEEENIKKLKSAGGSAGGS [r20_191_JUSTAS]”?
**A.** folding stability dG unfold [1]: -0.897 ± 0.6 kcal/mol; folding stability dG unfold [2]: < -1 kcal/mol

**Q.** For “SAGMEVVEKIAKELGYENVKVESITPQVSPSGTTTLTITVKISKPGSTKTFTITASPEEIEEEIKKALSSAG [r5_549_JUSTAS]”, which “folding stability dG unfold” value [1] is on record?
**A.** 4.72 ± 0.14 kcal/mol

**Q.** What about the “folding stability dG unfold” value [2] of the same sequence?
**A.** 4.77 ± 0.23 kcal/mol

**Q.** What does the source list for “SAGGSAGGSASEEEKPPKIKRVTINIPEEELRERFPGNPEWAENIAREAAKEGFDEVEIDINSAGGSAGGSA [r18_441_TrROS]”?
**A.** folding stability dG unfold [1]: 0.942 ± 0.12 kcal/mol; folding stability dG unfold [2]: 0.521 ± 0.17 kcal/mol

**Q.** What does the source list for “SAGGSAMKTAEVVLDVPEEELEAARAAGEGLSAEVRARMEALAAEVRAAGYDEVVLRLRPSSVPLPSAGGSA [r15_304_JUSTAS]”?
**A.** folding stability dG unfold [1]: -0.0294 ± 0.24 kcal/mol; folding stability dG unfold [2]: < -1 kcal/mol

**Q.** Which results are given for “SAVTFPVPVTVTVPDADGGPPAVTVPVAVPVDPDAVRDAAIERLRRELAEAGRPDVTEEDLARPEFLAARSA [r9_263_TrMRF]”?
**A.** folding stability dG unfold [1]: 0.622 ± 0.16 kcal/mol; folding stability dG unfold [2]: -0.335 ± 0.23 kcal/mol

**Q.** Which “folding stability dG unfold” value [1] does the source give for “SAGGSAGGSAGAVTVTVDAAPDPLPDREYVVVTVERTLPSGEVLAESRVFDRAEEALEAASAGGSAGGSAGG [r11_792_TrMRF]” here?
**A.** 0.432 ± 0.14 kcal/mol

**Q.** And the “folding stability dG unfold” value [2]?
**A.** -0.209 ± 0.26 kcal/mol

**Q.** What does the source list for “SAGGSAGGSPAEITREEAVELAYETLPATEPAVFVFADPRLLVVYPDGADPSRNRVVEVPLLDSAGGSAGGS [r12_648_TrMRF]”?
**A.** folding stability dG unfold [1]: -0.339 ± 0.17 kcal/mol; folding stability dG unfold [2]: -0.741 ± 0.22 kcal/mol

**Q.** Which results are given for “SAGGSAGGSAGGKKININVPAEEMTEEEIKKLIKNLPPDMPIEIEIQPVPPPPPPPPGDKSAGGSAGGSAGG [r7_979_TrROS]”?
**A.** folding stability dG unfold [1]: -0.851 ± 0.63 kcal/mol; folding stability dG unfold [2]: < -1 kcal/mol
